From EP3926342A1

Columns and labels:
[1] = target: recombinant human ICAM-1/CD54 (R&D Systems) (human) (UniProt P05362)
[2] = target: human rhinovirus strain RV89 (major group RV-A), purified virus (human rhinovirus) (UniProt P07210); experiment: fluid phase competition ELISA: RV89 (25 µg/ml) pre-incubated with 50 µg/ml soluble ICAM-1, then added to plate-bound ICAM-1
[3] = target: human rhinovirus strain RV2 (minor group RV-A), purified virus (human rhinovirus) (UniProt P04936); experiment: fluid phase competition ELISA: RV2 (5 µg/ml as printed here) pre-incubated with 50 µg/ml soluble LDLR, then added to plate-bound LDLR
[4] = target: biotinylated RV89 (human rhinovirus) (UniProt P07210)
biotinylated RV89 (human rhinovirus), sequence (P07210 2-866): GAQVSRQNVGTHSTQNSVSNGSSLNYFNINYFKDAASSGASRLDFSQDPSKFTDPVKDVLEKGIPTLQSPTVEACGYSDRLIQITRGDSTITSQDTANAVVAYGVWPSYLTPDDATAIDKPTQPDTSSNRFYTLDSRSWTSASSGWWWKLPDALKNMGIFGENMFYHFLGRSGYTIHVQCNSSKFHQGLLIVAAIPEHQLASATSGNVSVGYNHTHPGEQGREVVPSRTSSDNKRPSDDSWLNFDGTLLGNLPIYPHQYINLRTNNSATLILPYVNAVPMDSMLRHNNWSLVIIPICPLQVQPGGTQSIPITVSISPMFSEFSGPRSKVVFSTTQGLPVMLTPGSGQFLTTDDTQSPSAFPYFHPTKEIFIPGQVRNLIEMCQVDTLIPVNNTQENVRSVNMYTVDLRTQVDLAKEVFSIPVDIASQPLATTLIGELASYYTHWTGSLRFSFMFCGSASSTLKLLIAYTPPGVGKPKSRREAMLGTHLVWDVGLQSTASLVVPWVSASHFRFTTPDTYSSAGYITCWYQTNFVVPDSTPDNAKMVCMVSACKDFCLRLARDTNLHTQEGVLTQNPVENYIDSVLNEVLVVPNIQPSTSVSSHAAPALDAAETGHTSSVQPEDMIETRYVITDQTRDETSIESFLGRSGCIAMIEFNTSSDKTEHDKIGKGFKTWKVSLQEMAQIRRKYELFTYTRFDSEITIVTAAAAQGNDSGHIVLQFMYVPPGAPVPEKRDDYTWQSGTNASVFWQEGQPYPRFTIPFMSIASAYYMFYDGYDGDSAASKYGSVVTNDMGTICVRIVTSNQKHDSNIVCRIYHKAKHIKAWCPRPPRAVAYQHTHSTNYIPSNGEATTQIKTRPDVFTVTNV

recombinant human ICAM-1/CD54 (R&D Systems) (human), sequence (P05362 28-480 limits assumed): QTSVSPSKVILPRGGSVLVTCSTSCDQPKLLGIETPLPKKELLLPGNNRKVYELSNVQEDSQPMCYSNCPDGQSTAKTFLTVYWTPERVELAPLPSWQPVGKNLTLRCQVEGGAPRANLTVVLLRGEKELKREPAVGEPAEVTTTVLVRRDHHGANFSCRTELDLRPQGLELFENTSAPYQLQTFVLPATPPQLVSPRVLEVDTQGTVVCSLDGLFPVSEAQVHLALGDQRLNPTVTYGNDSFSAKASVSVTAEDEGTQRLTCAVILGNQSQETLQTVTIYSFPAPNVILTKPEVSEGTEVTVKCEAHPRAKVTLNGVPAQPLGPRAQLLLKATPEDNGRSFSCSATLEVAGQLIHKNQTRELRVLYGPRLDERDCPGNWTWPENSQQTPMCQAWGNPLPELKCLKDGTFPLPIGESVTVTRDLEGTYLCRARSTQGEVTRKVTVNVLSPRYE
human rhinovirus strain RV89 (major group RV-A), purified virus (human rhinovirus), sequence (P07210 2-866): as the sequence (P07210 2-866) above
recombinant human ICAM-1/CD54 (R&D Systems), sequence (P05362 28-480 limits assumed): as the sequence (P05362 28-480 limits assumed) above
human rhinovirus strain RV2 (minor group RV-A), purified virus (human rhinovirus), sequence (P04936 2-850): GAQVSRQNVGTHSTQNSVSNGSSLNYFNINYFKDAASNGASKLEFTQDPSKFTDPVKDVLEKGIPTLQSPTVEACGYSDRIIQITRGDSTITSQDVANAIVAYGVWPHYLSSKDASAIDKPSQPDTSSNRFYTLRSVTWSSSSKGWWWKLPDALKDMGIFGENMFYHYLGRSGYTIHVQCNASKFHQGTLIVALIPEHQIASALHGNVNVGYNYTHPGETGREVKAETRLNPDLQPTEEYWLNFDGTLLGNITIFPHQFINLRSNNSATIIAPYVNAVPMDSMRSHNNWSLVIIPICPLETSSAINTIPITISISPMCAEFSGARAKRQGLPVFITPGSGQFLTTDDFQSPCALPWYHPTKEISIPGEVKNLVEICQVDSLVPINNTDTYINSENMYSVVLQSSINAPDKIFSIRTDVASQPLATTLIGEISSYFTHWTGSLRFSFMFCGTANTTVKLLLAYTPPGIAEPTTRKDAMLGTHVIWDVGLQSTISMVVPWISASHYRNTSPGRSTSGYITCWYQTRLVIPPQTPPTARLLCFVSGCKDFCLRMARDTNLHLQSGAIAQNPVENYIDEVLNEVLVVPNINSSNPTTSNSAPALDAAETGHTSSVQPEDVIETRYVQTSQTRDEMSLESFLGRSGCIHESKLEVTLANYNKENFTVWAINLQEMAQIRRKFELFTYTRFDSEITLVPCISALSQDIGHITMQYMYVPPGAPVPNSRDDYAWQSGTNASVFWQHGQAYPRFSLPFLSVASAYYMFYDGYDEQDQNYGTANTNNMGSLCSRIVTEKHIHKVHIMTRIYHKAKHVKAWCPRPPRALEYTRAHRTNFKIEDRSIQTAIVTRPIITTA

“biotinylated RV89 (from UniProt P07210 2-866)” was tested, and the lowest virus concentration at which binding to ICAM-1 was detected [1] was 6.25 µg/mL.

“human rhinovirus strain RV89 (major group RV-A), purified virus (from UniProt P07210 2-866)” showed a lowest virus concentration at which binding to ICAM-1 was detected [1] of 6.25 µg/mL.

With “recombinant human ICAM-1/CD54 (R&D Systems) (from UniProt P05362 28-480) (receptor)” the percent inhibition of RV89 binding to plate-bound ICAM-1 [2] was greater than 95%.

In the case of “recombinant human LDLR (R&D Systems) (from UniProt P01130 22-788) (receptor)”, the percent inhibition of RV2 binding to plate-bound LDLR [3] is reported as greater than 60%.

For “ultrasensitive Streptavidin-Peroxidase Polymer (Merck) (from UniProt P22629 37-163)”, the lowest coated concentration of biotinylated RV89 that was detected [4] was 0.625 µg/mL.
